From patent US20120231021A1 (GREEN CROSS, published 2012) come the findings set out here.

Positions count from the first letter of the chain named.

The target of test [1] is T1, epidermal growth factor receptor (EGFR) on tumor cells (A431 epidermoid carcinoma cells); MDA-MB-231 breast … (UniProt P00533 25-1210, limits assumed).
T1 construct: whole, on cells; Endogenous receptor of the cell lines; also called EGFR overexpressed in a cancer cell line (A431); EGFR in A431 cells
The test can be described thus: flow cytometry on A431 cells, 10 µg antibody.

Test [2] deals with T2, epidermal growth factor receptor (EGFR) (Sigma, U.S), purified protein (UniProt P00533 25-1210, limits assumed).
T2 construct: also called EGFR antigen
The test can be described thus: competitive ELISA, EGFR-coated plate with soluble EGFR as competitor (FIG. 9). (In general: An ELISA detects its analyte on a solid surface through an enzyme-linked reagent.)
Protocol: 100 μL of EGFR (Sigma, U.S) at a 2 μg/mL dilution in PBS was added to each well of a plate and incubated overnight at 4° C. Each well was washed once with PBST, 300 μL of 1% BSA-PBS solution was added to each well, and stored for 1 hour at room temperature.
2 μg of EGFR was diluted by a two-fold and 10 μL of the diluted EGFR was added to each well of the plate. Then, 90 μL of the antibody diluted to the optimum concentration determined in (1) was added to each well, incubated for 2 hours at room temperature, and washed 4 times with PBST.

B1: human antibody ER2 (antibody, V domains shown)
VH: EVQLVESGGGVVQPGGSLRLSCAASGFTFSDYDMSWIRQAPGKGLEWVSGILGGSERSYYRDSVKGRFTISRDNSRKTLYLQMNSLRAEDTAVYYCARHGSPGYTLYAWDYWGQGTTVTVSS
VL: DIVMTQTPLSLPVTPGEPASISCRSNQDLTHSNGNTYLEWYLQKPGQSPRLLIYKVSNRFSGVPDRFSGSGAGTDFTLRISRVEAEDVGVYYCMQGTHWPWTFGQGTKVDIKR
notes: also called ER2 antibody
For the molecule B1, the binding result in test [1] is given as “binds”.

B2: human antibody ER79 (antibody, V domains shown)
VH: B1 VH
VL: B1 VL with N26S, D28S, L29V, T30D, H31M, S32G, N33I, T36N
notes: also called ER79 antibody
In the case of B2, in test [2], the “fold lower affinity than C225” value turned out to be 2 times; the “percent of affinity relative to C225 and M96” value was ~63%.
